Experimental data published in article PMC3279196 (Journal of Molecular Biology, 2011).
Where two headings read alike, the source gives them in different places.

What was measured:
static light scattering = target: the molecule itself; assay: static light scattering
[1] = target: T1, CheW from Thermotoga maritima (T. maritima, UniProt Q56311 1-151); assay: NMR titration
T1 sequence (looked up): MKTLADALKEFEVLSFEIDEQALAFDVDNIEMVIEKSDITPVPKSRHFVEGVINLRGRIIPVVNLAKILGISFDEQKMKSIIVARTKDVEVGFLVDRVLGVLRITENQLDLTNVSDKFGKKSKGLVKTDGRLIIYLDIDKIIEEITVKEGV

[2] = target: T1, CheW from Thermotoga maritima; assay: NMR titration; remark: listed apart in the source

B1: TM0014(90-206) with N-terminal tyrosine and His5 tag (domain or fragment, T. maritima, UniProt Q7DFA3 90-206, looked up)
chain: KSGTNVDQIVERVKEASSQIGETLENIRSIEKLIQNIMRIARETNILALNATIEAARAGEAGKGFMIVANEVQNLSNETNEVTKQIVEKAREILESSQRSLENLEFMANLFETVGKT
With B1 the “stoichiometry N” value (static light scattering) was 2, the Kd [1] was about 1200 µM and the Kd [2] was about 300 µM.
